These are literature values, as cited in paper PMC12524660.

In this data set the target is Cys156 (UniProt position 156, VSNASCTTNCL).

With “Cytosolic NAD-dependent glyceraldehyde-3-phosphate dehydrogenase C1 (GAPC1) (Arabidopsis thaliana)”, the pKa result was “below pH 6”.
